According to patent US20260152569A1, “ANTI-GPC1 MONOCLONAL ANTIBODY, THERAPEUTIC AND DIAGNOSTIC USES THEREOF” (CENTRO DI RIFERIMENTO ONCOLOGICO DI AVIANO, priority 2022, published 2026):
Where “and” joins values, the source holds several entries; their conditions need not be identical. Equal entries are not always repeated.

Assays:
BXPC3 tumor [1] = test: Therapeutic effect of doxorubicin-loaded chitosan nanobubbles in BXPC3 mouse model
Protocol: The amount of doxorubicin loaded nanobubbles used for the treatments in each group corresponded to 2 mg/kg per week of doxorubicin for each different treatment modality. Data are represented as mean±SD.
P-value was calculated using the log-rank test. Colored areas correspond to 95% confidence interval.
The survival data from the four treatments were evaluated by Kaplan-Meier curves to compare each treatment with one at time of the others. […] P-value was calculated using the log-rank test. Colored areas correspond to 95% confidence interval.
The study started when the subcutaneous BXPC3-tumor reached a volume of 75 mm^3. The humanitarian endpoints that had caused the euthanasia of mice were: one tumor dimension greater than 12 mm or ulceration of the tumor. Four groups of mice were tested: a first group of animals treated with doxo-CS NBs-C (n=6); a second group of animals treated with doxo-CS NBs (n=6); a third group of control animals treated with doxorubicin (doxo 2 mg/kg) in order to treat mice at the same concentration (2 mg/kg for a week) (n=10); a fourth group of control animals treated with PBS solution (n=8).
Mice survival was evaluated using Kaplan-Meier curves and the p-value was calculate using log rank test.

GPC1 protein [2] = test: Flow cytometry analysis of GPC1 expression in cell lines; format: cell-based, human; settings: JURKAT cell line (complete absence of GPC1 protein)
Protocol: (§1) Remarkably, the same expression pattern as flow cytometry analysis was obtained by immunofluorescence analysis with anti-GPC1 C. […] Thus, the results of immunofluorescence analysis confirmed the ability of anti-GPC1 C to detect the GPC1 protein that was observed when flow cytometry was performed (FIGS. 1A, 1B). • c) Anti-GPC1 C was also shown to specifically recognize GPC1 protein in GBM tissue samples from surgical resection.

GPC1 protein [3] = test: Immunofluorescence of GPC1 protein in cell lines; format: cell-based, human; settings: JURKAT cells
Protocol: as §1

GPC1 protein [4] = target: T1, GPC1 protein (Homo sapiens, UniProt P35052); test: Immunofluorescence of GPC1 protein in BXPC3 xenograft tumor masses and mouse organs; set-up: species or system athymic nude mice; settings: tumor masses of BXPC3 xenografts
T1 construct: in tumor masses of xenografts obtained by subcutaneous injection of BXPC3 into athymic nude mice; from tissue; host or cells: BXPC3 xenograft tumour masses from athymic nude mice; organs of the same mice as negative control
T1 sequence (P35052 24-530 limits assumed): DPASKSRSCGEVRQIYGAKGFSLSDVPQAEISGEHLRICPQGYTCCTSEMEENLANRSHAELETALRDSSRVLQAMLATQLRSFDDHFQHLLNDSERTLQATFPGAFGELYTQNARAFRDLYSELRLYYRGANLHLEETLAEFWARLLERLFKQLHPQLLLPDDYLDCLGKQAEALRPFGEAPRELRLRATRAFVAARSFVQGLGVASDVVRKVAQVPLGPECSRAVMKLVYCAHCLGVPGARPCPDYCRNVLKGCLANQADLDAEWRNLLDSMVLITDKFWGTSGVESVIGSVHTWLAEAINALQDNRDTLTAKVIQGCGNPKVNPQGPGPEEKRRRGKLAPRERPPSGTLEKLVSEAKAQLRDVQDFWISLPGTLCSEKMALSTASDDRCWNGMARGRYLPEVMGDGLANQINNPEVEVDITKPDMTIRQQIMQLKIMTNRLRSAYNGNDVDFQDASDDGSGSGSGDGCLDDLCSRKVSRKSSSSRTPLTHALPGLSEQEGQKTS
Protocol: (§2) Scale bar corresponds to 25 μm.
as §1

GPC1 protein [5] = test: as above; set-up: species or system athymic nude mice; settings: organs of the xenograft mice
Protocol: as §2, §1

BXPC3 tumor mass [6] = test: In vivo and ex vivo biodistribution of Cy5.5-conjugated anti-GPC1 C in BXPC3 xenograft mice; set-up: species or system athymic nude mice
Protocol: Whole-body scan of a representative mouse in prone and supine position is shown. […] Green circles enclose the tumor mass.
Data are reported as average efficiency mean±SD (n=4). P-value was calculated using the t-test, for the t-test, anti-GPC1 C was used as reference for each time point. ns: ≥0.05; *: 0.05<p≤0.01; **: 0.01<p≤0.001.
Data are reported as mean±SD (n=4). P-value was calculated using the t-test. ns: ≥0.05.
Blue represents nuclei and green represents IgMs. Scale bar corresponds to 25 μm.
Specifically, in vivo time course experiments with signal detection from 0 to 96 hours and signal evaluation every 24 hours were performed to evaluate the ability to target tumor mass and the overall biodistribution of anti-GPC1 C when injected into the mouse tail vein after conjugation with Cy5.5 for detection using the VIVOVISION IVIS®Lumina (Xenogen) in vivo imaging device (FIGS. 5A, B, C, D, E, F, G).

BXPC3 tumor [7] = system: BXPC3 tumor
Protocol: Experimental endpoint was set up at day 50. Untreated mice (orange line) were used as controls. Data were visualized using Kaplan-Meier analysis, p-value of 0.00016 was calculated using the log rank test.
Data are represented as mean±standard error (SE).
The treatment procedure started when the tumor reached a volume of 75 mm^3, and when possible, it was stopped at day 42. For mice reaching the day 42, the final experimental endpoint was set up at day 50 from the beginning of the treatment procedure.

GPC1 protein [8] = target: T2, GPC1 protein (Homo sapiens, UniProt P35052); test: Immunofluorescence of GPC1 protein in cell lines; format: cell-based; set-up: endogenous in cells; host or cells: BXPC3, U87MG, T98G (GPC1-expressing); settings: BXPC3, U87MG and T98G cell lines
T2 sequence (P35052 24-530): T1 sequence (P35052 24-530 limits assumed)
Protocol: as §1

GPC1 protein [9] = target: T2, GPC1 protein; test: Flow cytometry analysis of GPC1 expression in cell lines; format: cell-based; set-up: endogenous in cells; host or cells: BXPC3, U87MG, T98G (GPC1-expressing); JURKAT (no GPC1); settings: GPC1-expressing BXPC3, U87MG and T98G cell lines
Protocol: as §1

BXPC3 tumor mass [10] = test: Complement-dependent cytotoxicity in BXPC3 tumor mass (hematoxylin-eosin, immunofluorescence); settings: compared with murine IgM pool or PBS
Protocol: The nuclei are stained in purple, the cytoplasm is stained in pink.
Blue represents nuclei and green represents the signal related to the immunological cell biomarkers (CD14 and CD56, respectively).
Blue represents nuclei and green represents the signal related to the complement system effectors (C1q, C3, C9, respectively).
To better characterize the source of cell death, the presence of complement system effectors, but also the recruitment of macrophages, and NK cells was also analyzed by immunofluorescence analysis (FIGS. 7A, 7B).
In particular, the involvement of the complement system was investigated, by analyzing C1q, C3 (C3b, iC3b, C3c), and C9.

GPC1 protein [11] = target: T2, GPC1 protein; test: Immunofluorescence of GPC1 protein in GBM, liver and lung tissue; set-up: specifically recognize GPC1 protein in GBM tissue samples from surgical resection; from tissue; host or cells: glioblastoma (GBM) tissue from surgical resection; healthy liver and lung tissue
Protocol: Scale bar corresponds to 50 μm.
as §1

[12] = i.v., Cy5.5 conjugate, in vivo imaging
[13] = 7 mice, i.p. 38 micrograms twice a week

`COc1cccc2c1C(=O)c1c(O)c3c(c(O)c1C2=O)C[C@@](O)(C(=O)CO)C[C@@H]3O[C@H]1C[C@H](N)[C@H](O)[C@H](C)O1` [Doxo, doxorubicin] was tested, and the “Mean survival ± S.D.” value (BXPC3 tumor [1]; 2 mg/kg doxorubicin per week) was 13.9 ± 1.59 days and the HR (BXPC3 tumor [1]; reference treatment: Untreated) was 0.19.

B1: anti-GPC1 C: anti-GPC1 IgM monoclonal antibody of the invention, heavy chain variable region SEQ ID NO: 13, light chain variable region SEQ ID NO: 14 (antibody, listed as Mus musculus, V domains shown)
VH: QVQLQQSDAELVKPGASVKISCKASGYTFTDHAIHWVKQKPEQGLEWIGYISPGNGDIKYNEKFKGKATLTADKSSSTAYMQLNSLTSEDSAVYFCKRYAYWGQGTLVTVSA
VL: DVLMTQTPLSLPVSLGDQASISCRSSQSIVHSNGNTYLEWYLQKPGQSPKLLIYKVSNRFSGVPDRFSGSGSGTDFTLKISRVEAEDLGVYYCFQGSHVPWTFGGGTKLEIKP
modifications: IgM constant regions
For B1, the “GPC1 protein signal by flow cytometry” value (GPC1 protein [2]) was “no signals corresponding to the presence of the GPC1 protein”, the “GPC1 protein signal by immunofluorescence” value (GPC1 protein [3]) was “no signal was observed” and the “GPC1 protein recognition by immunofluorescence” value (GPC1 protein [4]) was “specifically recognize the GPC1 protein”. For the same molecule, the “GPC1 protein signal by immunofluorescence” value (GPC1 protein [5]) was “no signals were obtained”, the “ex vivo accumulation in the tumor mass compared to the IgM pool” value (BXPC3 tumor mass [6]; 96 hours after administration, IVIS Lumina) was “higher accumulation” and the “ex vivo immunofluorescence detection in the BXPC3 tumor mass” value (BXPC3 tumor mass [6]; 96 hours after injection) was “still detected”. The “time remaining in the tumor” value (BXPC3 tumor mass [6]; ex vivo immunofluorescence) was “at least 96 hours”, the “peak of accumulation on the tumor mass” value (BXPC3 tumor mass [6]; i.v., Cy5.5 conjugate, BXPC3 xenograft, imaging every 24 h from 0 to 96 h) was 72 h and the “signal in the kidneys and liver” value (BXPC3 tumor mass [6]; [12]) was “A clear signal”. For the same molecule, the “tumor mass signal at 96 hours” value (BXPC3 tumor mass [6]; [12]) was “maintained up to 96 hours”, the “% survival at day 50” value (BXPC3 tumor [7]; [13]) was 57.1% and the “Mean day of euthanasia/sacrifice” value (BXPC3 tumor [7]; [13]) was 42.7. For the same molecule, the “Day of end point” value (BXPC3 tumor [7]; individual mouse, i.p. 38 micrograms twice a week until day 42, experimental endpoint day 50) was 28 and 29 and 42 and 50 (4×), the “complete remission of the tumor mass” value (BXPC3 tumor [7]; observed in one animal) was “complete remission” and the “survival time intervals versus PBS-treated mice” value (BXPC3 tumor [7]; p=0.00016, log-rank test) was “significantly longer”. The “toxicity (weight loss, diarrhea, vomiting, convulsions, dehydration, tachypnea, dyspnea, motionless)” value (BXPC3 tumor [7]; treated group) was “no evidence of toxicity”, the “GPC1 protein signal by immunofluorescence” value (GPC1 protein [8]) was “a signal corresponding to the GPC1 protein was observed” and the “GPC1 protein recognition by flow cytometry” value (GPC1 protein [9]) was “specifically recognize the GPC1 protein”. The “tumor cell death by hematoxylin-eosin staining” value (BXPC3 tumor mass [10]; 96 hours) was “clear indicator of cell death”, the “complement system deposition (C1q, C3, C9), macrophage and NK cell recruitment in tumors” value (BXPC3 tumor mass [10]; immunofluorescence) was “high degree of complement system deposition (C1q, C3, C9), macrophage and NK cell recruitment” and the “GPC1 protein signal by immunofluorescence” value (GPC1 protein [11]; GBM tissue samples from surgical resection) was “a specific signal was observed”. For the same molecule, the “GPC1 protein signal by immunofluorescence” value (GPC1 protein [11]; healthy tissues (liver and lung)) was “no signal corresponding to GPC1 protein was detected”.
